Data taken from paper PMC3355305, “Localized Dimerization and Nucleoid Binding Drive Gradient Formation by the Bacterial Cell Division Inhibitor MipZ” (Molecular Cell, 2012).

Legend:
[1] = tested on: double-stranded oligonucleotide (ran2); experiment: SPR analysis of the interaction between MipZ and DNA; assay type: binding
Procedure: Figure S5. Surface plasmon resonance (SPR) analysis of the interaction betw een MipZ and DNA, Related to Figure 4.
(A) Effect of Mg2+ on the DNA-binding activity of MipZ. A double-stranded oligonucleotide (ran2, 700 RU) was immobilized on an SPR sensor chip and probed with MipZ (1 µM). The binding reactions were performed in buffer BC containing the indicated nucleotide (2 mM) and no (ATP + Mg2+) or 10 mM (no nucleotide, ADP, ATP) EDTA, respectively.
(B) DNA-binding specificity of MipZ. A double-stranded oligonucleotide (ran2, 500 RU) was immobilized on an SPR sensor chip and allowed to react with MipZ protein (1 µM) that had been preincubated with 2 mM ATP and a double-stranded oligonucleotide (ran2, 6 µM) (dsDNA), a single-stranded oligonucleotide (top strand of ran2, 6 µM) (ssDNA), an oligoribo-nucleotide (with a sequence analogous to the top strand of ran2, 6 µM) (RNA) or polyphosphate (25 µg/ml) (PP), respectively. A reaction performed in the absence of any competitor served as a control. […]
experimental conditions used (data not shown). The dissociation rate constant determined for the reaction without ParB was […]
obtained from crystals flash frozen in a solution of 95% 2 mM, sa mp le s were taken and analyzed for the amount ethanol/50 mM Tris (pH 8.5), and collected at ID23-2, of [α-32P]-GDP produced in the reaction as described ESRF (Grenoble, France). […]

ParB = target: ParB; parameters: method as in Thanbichler and Shapiro, 2006; conditions: apo-MipZ; ref Thanbichler and Shapiro, 2006; cited from earlier work

B1: MipZ: P loop ATPase and cell division inhibitor of Caulobacter crescentus; hexahistidine-tagged in vitro, YFP fusion in FRAP (protein)
chain: MAETRVIVVGNEKGGAGKSTIAVHLVTALLYGGAKVAVIDLDLRQRTSARFFENRRAWLDNKKIELPEPLALNLSDNDVALAERPEEEQVAGFEAAFARAMAECDFILIDTPGGDSAITRMAHGRADLVVTPMNDSFVDFDMLGTVDPVTLELTKPSLYSLTVWEGRKQRALSGQRQAMDWVVLRNRLATTEARNRKRLEDRLNALAKRVGFRIGPGLRDRVIYRELFPFGLTIADLSPQVRPVPVSLQHLAARQELRALMHSLGLSAYSGETMLAAQ
modifications: left off: His6, end not stated, state not stated
notes: hexahistidine-tagged in vitro, YFP fusion in FRAP
rate constant for the dissociation of MipZ from DNA (koff) ([1]; MipZ 0.5 µM, 2 mM ATP, without ParB): 0.025 s⁻¹ | half-time t1/2 of dissociation of MipZ from DNA ([1]; in vitro): 28 s | Kd (ParB): ~2000 nM
